Results taken from US20240392013A1 (STELEXIS THERAPEUTICS, published 2024).

T1: cyIL1RAP-His (Lake Pharma) (cynomolgus monkey, UniProt A0A2K5X5J5 21-367)
T1 construct: Bought protein (Lake Pharma, lot 16205819371); also called cynomolgus IL1RAP; monkey IL1RAP; not shown: His tag
T1 sequence: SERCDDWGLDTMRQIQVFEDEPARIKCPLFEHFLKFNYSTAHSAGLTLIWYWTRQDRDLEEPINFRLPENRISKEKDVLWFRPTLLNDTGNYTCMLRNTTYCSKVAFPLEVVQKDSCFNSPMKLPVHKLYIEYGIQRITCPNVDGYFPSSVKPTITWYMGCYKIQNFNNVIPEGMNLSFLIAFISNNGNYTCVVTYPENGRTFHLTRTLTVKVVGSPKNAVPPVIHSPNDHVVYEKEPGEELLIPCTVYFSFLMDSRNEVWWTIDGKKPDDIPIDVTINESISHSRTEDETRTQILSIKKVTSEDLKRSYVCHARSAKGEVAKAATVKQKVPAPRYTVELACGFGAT

T2: IL1RAP on HEK-Blue IL1β / HEK-Blue IL33 reporter cells (UniProt Q9NPH3 21-570, limits assumed)
T2 sequence (looked up): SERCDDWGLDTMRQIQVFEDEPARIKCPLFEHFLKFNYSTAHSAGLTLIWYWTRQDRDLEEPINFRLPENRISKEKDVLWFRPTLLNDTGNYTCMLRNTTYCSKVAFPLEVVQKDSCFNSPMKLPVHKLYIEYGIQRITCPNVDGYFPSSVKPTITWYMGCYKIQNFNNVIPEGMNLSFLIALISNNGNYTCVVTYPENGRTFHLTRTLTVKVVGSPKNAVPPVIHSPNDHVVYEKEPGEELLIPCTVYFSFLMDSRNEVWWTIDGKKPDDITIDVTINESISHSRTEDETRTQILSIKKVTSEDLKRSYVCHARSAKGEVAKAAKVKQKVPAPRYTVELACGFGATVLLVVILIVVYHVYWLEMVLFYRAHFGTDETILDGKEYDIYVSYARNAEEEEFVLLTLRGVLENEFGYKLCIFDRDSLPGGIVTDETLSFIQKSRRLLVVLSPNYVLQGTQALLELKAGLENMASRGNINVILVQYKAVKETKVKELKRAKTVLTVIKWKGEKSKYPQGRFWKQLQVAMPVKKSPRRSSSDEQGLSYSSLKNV

T3: recombinant mouse IL1RAP protein (Sino Biological, Cat #52657-M08H) (mouse, UniProt Q61730 21-359)
T3 construct: Bought protein
T3 sequence (looked up): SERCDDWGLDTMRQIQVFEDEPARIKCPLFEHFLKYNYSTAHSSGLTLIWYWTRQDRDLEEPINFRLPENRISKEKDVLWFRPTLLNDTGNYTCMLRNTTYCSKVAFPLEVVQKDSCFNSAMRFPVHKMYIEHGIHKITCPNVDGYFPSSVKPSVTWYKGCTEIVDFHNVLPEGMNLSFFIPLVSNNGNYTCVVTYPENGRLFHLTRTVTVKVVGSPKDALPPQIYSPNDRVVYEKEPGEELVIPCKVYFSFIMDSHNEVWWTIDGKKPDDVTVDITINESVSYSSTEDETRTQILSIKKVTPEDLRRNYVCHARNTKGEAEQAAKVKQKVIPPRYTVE

T4: recombinant human IL1RAP protein, extracellular domain His-tagged (Sino Biological, Cat #10121-H08H) (human, UniProt Q9NPH3 21-367)
T4 construct: extracellular domain; Bought protein; The Octet analyte is printed as huIL1RAP-His (Sino Biological, lot MB08MA1301) without a catalogue number; also called huIL1RAP-His; hIL1RAP; not shown: His tag
T4 sequence (looked up): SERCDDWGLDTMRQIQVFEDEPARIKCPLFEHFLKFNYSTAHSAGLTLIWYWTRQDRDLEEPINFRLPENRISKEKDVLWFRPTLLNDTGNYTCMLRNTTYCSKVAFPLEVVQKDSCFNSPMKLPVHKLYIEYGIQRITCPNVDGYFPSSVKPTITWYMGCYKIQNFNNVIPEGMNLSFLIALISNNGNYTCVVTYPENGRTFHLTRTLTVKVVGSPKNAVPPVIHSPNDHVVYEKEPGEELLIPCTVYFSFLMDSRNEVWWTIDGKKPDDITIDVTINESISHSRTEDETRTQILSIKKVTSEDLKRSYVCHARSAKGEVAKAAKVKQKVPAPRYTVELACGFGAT


How the values were obtained:
[1] = biological target: T1, cyIL1RAP-His (Lake Pharma); assay: Octet BLI; mAb captured on anti-mouse IgG Fc sensor; cyIL1RAP-His analyte
Experimental: (§1) Antibodies were diluted in kinetics buffer (0.1% BSA, 0.02% Tween-20 and 0.05% NaN₃ in PBS) and loaded onto 16 channel anti-mouse IgG Fc capture sensors (AMC, Cat #2001073; Sartorius, Göttingen, Germany). Human, huIL1RAP-His (Sino Biological, lot: MB08MA1301), and monkey, cyIL1RAP-His (Lake Pharma, NY, USA; lot:16205819371) proteins were titrated starting from the highest concentration of 100 nM and followed by 50 nM and 25 nM. Purified antibodies were loaded at 5 μg/ml in kinetics buffer. The experimental parameters selected to determine the kinetic constants were Baseline for 60 s, Loading of antibody to sensor for 180 s, Association of analyte to antibody for 120 s, Dissociation for 1200 s and Regeneration in 10 mM Glycine pH 1.7 for 4×30 s.
(§2) Regeneration cycle tracking was selected for 12 cycles. Binding to human and cynomolgus IL1RAP was measured and KD (M) kinetics were calculated. Also, the disassociation rate (Kdis) (1/s) and association rate (Kon) (1/Ms) kinetics were calculated (data not shown).

[2] = biological target: T2, IL1RAP on HEK-Blue IL1β / HEK-Blue IL33 …; assay: cell-based or functional assay
[3] = biological target: T2, IL1RAP on HEK-Blue IL1β / HEK-Blue IL33 …; assay: cell-based or functional assay; remark: listed apart in the source
[4] = biological target: T3, recombinant mouse IL1RAP protein (Sino …); assay: cell-free ELISA, mouse IL1RAP coated; data not shown
Experimental: Recombinant human or mouse IL1RAP proteins (Sino Biological, Beijing, China; Cat #10121-H08H and Sino Biological, Cat #52657-M08H respectively) were diluted in PBS, pH 7.4 at concentration of 1 μg/ml, coated on high-binding 384-well clear plates and incubated overnight at 4° C. Following, plates were washed 3× with 0.05% Tween-20 in PBS, pH 7.5 and then blocked with 1% BSA in PBS for 1 hour at room temperature. After 3× washes, wells were incubated with each antibody at the highest concentration of 100 nM followed by seven serial half log dilutions (in 1% BSA and 0.05% Tween-20 in PBS) for 1 hour at room temperature. Plates were then washed 3× and incubated with […] detection antibody (Medna, TX, USA; Cat #D8212, 0.5 μg/ml diluted in 0.02% Tween-20 in PBS). After 5× washes, Supersignal ELISA Pico substrate (Thermofisher, MA, USA; Cat #37069) was applied to wells and chemiluminescent signal was read on Sprectramax L for 200 ms/well. Similarly, detection with specific κ and λ antibodies was conducted to define light chain isotyping.

[5] = biological target: T4, recombinant human IL1RAP protein, …; assay: Octet BLI; mAb captured on anti-mouse IgG Fc sensor; huIL1RAP-His analyte
Experimental: as §1, §2

Binder | Kd [1] | Response [1] | koff [1] | kon [1] | IC50, HEK-BlueIL33 NFκB Reporter Assay [2] | Max % Inhibition at 200 nM, HEK-BlueIL33 NFκB Reporter Assay [2] | IC50, HEK-BlueIL1β NFκB Reporter Assay [3] | Max % Inhibition at 200 nM, HEK-BlueIL1β NFκB Reporter Assay [3] | binding result [4] | Kd [5] | Response [5] | koff [5] | kon [5]
STLX2005 (antibody, V domains shown, Purified from hybridoma of immunized Alivamab mice; intact IgG; captured on anti-mouse IgG Fc sensors in Octet; kappa light chain; also called 74804_05B24A) VH: EVQLVDSGGGLVKPGGSLRLSCAATGFTFSNVWMSWVRQGSGKGLEWVGRIKSKTDGGTIDYAAPVKGRFTISRDDPKNTLYLQMNSLKTEDTAVYYCTTGELLGFDYWGQGTLVTVSS VL: DIVMTQSPLSLPVTPGEPASISCRSGQSLLHNNGFNCLAWYLQKPGQSPQLLIYLGSNRASGVPDRFSGSGSGTDFTLKISRVEAEDVGVFYCMQTLQTPITFGQGTRLEIK | 2.1 nM | 0.3 | 0.000563 s⁻¹ | 268000 M⁻¹ s⁻¹ | 2.72e-09 M (implied; unit not printed) | 85% | 4.46e-10 M (implied; unit not printed) | 99% | no binding (tested: 100 nM) | 1.67 nM | 0.268 | 0.000491 s⁻¹ | 294000 M⁻¹ s⁻¹
STLX2029 (antibody, V domains shown, Purified from hybridoma of immunized Alivamab mice; intact IgG; captured on anti-mouse IgG Fc sensors in Octet; kappa light chain; also called 74804_29D13A) VH: QVQLLQSGAEVKKPGSSVKVSCKASGGTFSIYAIDWVRQAPGQGLEWMGGIIPIFGTANSAQKFQGRVTITADKSTSTAYMELSSLRSEDTAVYYCARNGATSDAFDMWGQGTMVTVSS VL: EIVLTQSPGTLSLSPGERATLSCRASLSVSSNYLAWFQQRPGQAPRLLIYGVSRRATGIPDRFSGSGSGTDFTLTISRLEPEDFAVYYCQQYGSSPLTFGGGTKVEIK | 1.97 nM | 0.327 | 0.00065 s⁻¹ | 330000 M⁻¹ s⁻¹ | 8.75e-09 M (implied; unit not printed) | 86% | 1.85e-09 M (implied; unit not printed) | 99% | no binding (tested: 100 nM) | 1.07 nM | 0.291 | 0.000361 s⁻¹ | 336000 M⁻¹ s⁻¹
STLX2007 (antibody, V domains shown, Purified from hybridoma of immunized Alivamab mice; intact IgG; captured on anti-mouse IgG Fc sensors in Octet; kappa light chain; also called 74804_07K10A) VH: QVQLLQSGAEVKKPGSSVKVSCRASGGTFSIYAIDWVRQAPGQGLEWMGGIIPISGTENSAQNFQDRITITADKSTNTAYMELSSLRSEDTAVYYCARNGATSDAFDIWGQGTMVTVSS VL: EIVLTQSPGTLSLSPGERATLSCRASLSVSSNYLAWFQQRPGQAPRLLIYGVSRRATGIPDRFSGSGSGTDFTLTISRLEPEDFAVYYCQQYGSSPLTFGGGTKVEIK | 0.751 nM | 0.273 | 0.000283 s⁻¹ | 377000 M⁻¹ s⁻¹ | 6.62e-09 M (implied; unit not printed) | 79% | 3.19e-09 M (implied; unit not printed) | 100% | no binding (tested: 100 nM) | 0.596 nM | 0.247 | 0.000234 s⁻¹ | 392000 M⁻¹ s⁻¹
